This note sets out measurements from publication PMC6695400, “Diversity of oligomerization in Drosophila semaphorins suggests a mechanism of functional fine-tuning” (Nature Communications, 2019).

Numbering of substitutions follows the chain as printed. Names may count otherwise. Like-named read-outs stand apart in the source and are kept apart here.

For data set [1], the target named is T1, Drosophila melanogaster PlexA1–4-mVenus (Drosophila melanogaster, UniProt Q9V491 28-730).
T1 construct: Plexin A, Drosophila melanogaster, domains 1-4 of the ectodomain, residues 28Q-730T; source: HEK293T, transient transfection, purified (HisTrap, SEC); not shown: mVenus, C-terminal, kept
T1 sequence (looked up): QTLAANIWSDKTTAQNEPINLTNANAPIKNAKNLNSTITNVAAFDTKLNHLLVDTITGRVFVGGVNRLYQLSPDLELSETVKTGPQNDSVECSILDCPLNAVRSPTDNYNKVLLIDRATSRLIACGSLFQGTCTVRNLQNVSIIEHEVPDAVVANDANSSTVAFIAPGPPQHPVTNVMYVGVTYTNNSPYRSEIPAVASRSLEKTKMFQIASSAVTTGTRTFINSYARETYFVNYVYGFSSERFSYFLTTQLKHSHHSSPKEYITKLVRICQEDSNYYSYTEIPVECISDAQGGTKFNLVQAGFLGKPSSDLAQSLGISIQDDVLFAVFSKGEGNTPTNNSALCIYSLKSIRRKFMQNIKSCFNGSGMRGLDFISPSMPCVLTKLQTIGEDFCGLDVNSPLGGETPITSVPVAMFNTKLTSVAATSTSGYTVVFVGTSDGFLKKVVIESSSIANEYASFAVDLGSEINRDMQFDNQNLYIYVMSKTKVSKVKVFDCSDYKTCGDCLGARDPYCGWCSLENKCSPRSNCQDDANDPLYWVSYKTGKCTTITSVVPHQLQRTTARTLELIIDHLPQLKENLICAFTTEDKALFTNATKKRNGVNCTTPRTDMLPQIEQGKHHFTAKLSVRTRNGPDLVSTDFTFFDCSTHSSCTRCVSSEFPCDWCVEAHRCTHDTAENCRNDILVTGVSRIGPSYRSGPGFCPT
Put plainly: MST; plexin-mVenus kept constant, unlabelled semaphorin titrated (1:1 dilution series); 25 °C; 15 mM HEPES pH 7.4, 150 mM NaCl, 2 mM CaCl2, 0.005% Tween-20; 1 h incubation at room temperature; apparent Kd.

Data set [2] addresses Drosophila melanogaster PlexB1–4-mVenus (Drosophila melanogaster) (UniProt Q9V4A7). The data set is described as above.
Data set [3] deals with Sema2b_(full) with the dimerization cysteine mutated to serine (Drosophila melanogaster). Description: SEC-MALS; Superdex 200 Increase 10/300, 15 mM HEPES pH 7.4, 150 mM NaCl; with SDS-PAGE under reducing and non-reducing conditions; initial concentrations up to 2 mg/ml; monomer to dimer.
Data set [4] deals with Drosophila melanogaster semaphorin-1a full-length ectodomain (Sema1a_(ecto)) (Drosophila melanogaster). The data set is described as above.
Data set [5] addresses Drosophila melanogaster full-length secreted semaphorin-2b (Sema2b_(full)) (Drosophila melanogaster). Described as above.
Data set [6] deals with the molecule itself. The data set is described as above.
The target of data set [7] is Drosophila melanogaster full-length secreted semaphorin-2b (Sema2b_(full)) (Drosophila melanogaster). Description: SEC-MALS; co-expressed heterodimer purified by HisTrap, StrepTactin and SEC; Superdex 200 Increase 10/300, 15 mM HEPES pH 7.4, 150 mM NaCl; with SDS-PAGE under reducing and non-reducing conditions. On the technique in general: Size exclusion chromatography separates by hydrodynamic size, large species first.

Drosophila melanogaster PlexB1–4-mVenus (Drosophila melanogaster), sequence (Q9V4A7 35-730): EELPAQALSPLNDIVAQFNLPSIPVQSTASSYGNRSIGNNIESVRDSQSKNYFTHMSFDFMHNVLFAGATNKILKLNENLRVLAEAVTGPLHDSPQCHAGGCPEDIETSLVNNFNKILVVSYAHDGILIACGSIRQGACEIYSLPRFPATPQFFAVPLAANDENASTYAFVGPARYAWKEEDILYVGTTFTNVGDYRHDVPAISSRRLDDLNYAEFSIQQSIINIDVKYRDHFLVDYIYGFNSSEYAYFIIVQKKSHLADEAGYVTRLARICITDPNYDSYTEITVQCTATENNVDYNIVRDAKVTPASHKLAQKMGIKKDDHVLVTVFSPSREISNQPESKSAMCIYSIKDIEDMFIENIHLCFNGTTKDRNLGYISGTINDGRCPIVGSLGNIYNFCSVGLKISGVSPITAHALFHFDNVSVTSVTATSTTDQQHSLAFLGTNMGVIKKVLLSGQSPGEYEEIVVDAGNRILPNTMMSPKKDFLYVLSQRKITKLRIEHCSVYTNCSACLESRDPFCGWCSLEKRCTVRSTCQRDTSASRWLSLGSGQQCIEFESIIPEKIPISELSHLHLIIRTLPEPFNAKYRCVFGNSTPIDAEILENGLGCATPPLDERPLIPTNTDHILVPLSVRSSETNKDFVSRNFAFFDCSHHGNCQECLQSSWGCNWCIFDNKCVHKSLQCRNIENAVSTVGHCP

In the case of “Fc-tagged dimerized Sema1a_(ecto) (Sema1a_(ecto)-Fc) (from UniProt Q24322 21-602) (Fc fusion)”, the Kd in data set [1] was 141 nM.
In the case of “Sema2a/2b heterodimer (Sema2a_(full)-TwinStrep with Sema2b_(full)-His6, disulfide-linked) (from UniProt Q24323 26-724) (complex)”, in data set [2], the Kd turned out to be 13 nM.
As a reminder, the stoichiometry N is the number of molecules, sites or subunits per partner or assembly. On to “Sema2b_(full) with the dimerization cysteine mutated to serine (ligand)”, for which, in data set [3], the stoichiometry N worked out at 2.
As to “Drosophila melanogaster semaphorin-1a full-length ectodomain (Sema1a_(ecto)) (domain or fragment)”, the stoichiometry N in data set [4] was determined as 2.
Consider “Drosophila melanogaster full-length secreted semaphorin-2b (Sema2b_(full)) (ligand)”, for which the Kd in data set [2] is 3 nM. In data set [5], this molecule came in with a stoichiometry N of 2.

B1: Sema1b_(ecto) with phenylalanine 254 mutated to cysteine (domain or fragment, Drosophila melanogaster, UniProt Q7KK54 37-659, looked up)
chain: DVKPDLQTKQDKVLAHFIGNSTDYFKILDHNDEFVLVGAKDVIYNVSLNGLKEIARLEWHSTDADRELCALKGKHEWDCHNYLRVYALRPNGEVLLCGTNSYKPRCRHYTPVEVSSEEAGSAGHAHAMRYEVSRDVEAQGLCPYSPAHNSTYAFADGHLYSATVADFSGGDPLIYRENLRTEQYDLKQLNQPDFVGAIERNGYVLFFFRELSMEVMNCGKAVYSRVARVCKNDRGGPYSHGKSWTSFLKARLNCSVPGEFPFYFDEIQAISPIVESGSKSLIYAVFTTSVNAIPGSAVCAFNVDDILAAFDGEFKSQKDSQSHWLPVEREQVPKPRPGQCVEDSRTLTSIAVNFIKNHPLMEEAVPAVHGRPLLTKVNLHHRLTAIAVHPQVKSLSGAYYDVIYSGTDDGKVTKFINILSTHPNSTVDRLKTVVISEMQVLPLGTPIRELVISTSKNSLVVVSDGSLVSVPLHHCSHIVDCLGCLSLQDPICAWDLQTHECKNLATSQHKFGTKTYLQSLNSTKKAAALLCPHIPRDAPGAETVSFVTMAPPPTEEQKLLYSNVGSSQGNQPSLEQQPTGGDDFGLNKITLTSMDPDDIMPNLNDPQKSTASVDEIKYASTPS
notes: Semaphorin-1b, Drosophila melanogaster, ectodomain, residues 37D-659S, F254C; also called Sema1b_(ecto) F254C; source: HEK293T, transient transfection, purified (HisTrap, SEC)
As to B1, the “stoichiometry N” value in data set [6] was 2.

B2: Drosophila melanogaster semaphorin-1b full-length ectodomain (Sema1b_(ecto)) (domain or fragment, UniProt Q7KK54 37-659, looked up)
chain: B1 chain with C218F
notes: Semaphorin-1b, Drosophila melanogaster, ectodomain, residues 37D-659S; Monomer in solution; source: HEK293T (30 °C), transient transfection, purified (HisTrap, SEC)
Take B2: in data set [1] (both partners purified), the Kd came to 586 ± 134 nM.

B3: Drosophila melanogaster full-length secreted semaphorin-2a (Sema2a_(full)) (ligand, UniProt Q24323 26-724, looked up)
chain: DYENTWNFYYERPCCTGNDQGNNNYGKHGADHVREFNCGKLYYRTFHMNEDRDTLYVGAMDRVFRVNLQNISSSNCNRDVINLEPTRDDVVSCVSKGKSQIFDCKNHVRVIQSMDQGDRLYVCGTNAHNPKDYVIYANLTHLPRSEYVIGVGLGIAKCPYDPLDNSTAIYVENGNPGGLPGLYSGTNAEFTKADTVIFRTDLYNTSAKRLEYKFKRTLKYDSKWLDKPNFVGSFDIGEYVYFFFRETAVEYINCGKAVYSRIARVCKKDVGGKNLLAHNWATYLKARLNCSISGEFPFYFNEIQSVYQLPSDKSRFFATFTTSTNGLIGSAVCSFHINEIQAAFNGKFKEQSSSNSAWLPVLNSRVPEPRPGTCVNDTSNLPDTVLNFIRSHPLMDKAVNHEHNNPVYYKRDLVFTKLVVDKIRIDILNQEYIVYYVGTNLGRIYKIVQYYRNGESLSKLLDIFEVAPNEAIQVMEISQTRKSLYIGTDHRIKQIDLAMCNRRYDNCFRCVRDPYCGWDKEANTCRPYELDLLQDVANETSDICDSSVLKKKIVVTYGQSVHLGCFVKIPEVLKNEQVTWYHHSKDKGRYEIRYSPTKYIETTERGLVVVSVNEADGGRYDCHLGGSLLCSYNITVDAHRCTPPNKSNDYQKIYSDWCHEFEKYKTAMKSWEKKQAQCSTRQNFSSNQHPNEIFRKPNV
notes: Semaphorin-2a, Drosophila melanogaster, residues 26D-724V; Disulfide-linked dimer in solution; source: HEK293T (37 °C), transient transfection, purified (HisTrap, SEC)
In the case of B3, the stoichiometry N is 1 in data set [7] and 2 in data set [6].

B4: Sema2a_(full) with the dimerization cysteine (Cys279) mutated to serine (ligand, Drosophila melanogaster, UniProt Q24323 26-724, looked up)
chain: B3 chain with C254S
notes: Semaphorin-2a, Drosophila melanogaster, residues 26D-724V, Cys279 to serine; also called Sema2a_(full) Cys to Ser mutant; source: HEK293T, transient transfection, purified (HisTrap, SEC)
Take B4: the “stoichiometry N” value in data set [6] was 2.
